According to publication PMC7005732:

Key:
[1] = target: Human non-translating 80S ribosome, puromycin-treated, purified from HeLa cells (human (endogenous in HeLa)) (UniProt P62750); assay: cryo-EM structure; in vivo pulled-out Ebp1-ribosome complex (dataset 1; merged with dataset 2 for the final map): 100 nM 80S ribosomes purified from HeLa cells without addition of recombinant Ebp1; occupancy estimated from computational particle sorting
[2] = target: Human non-translating 80S ribosome, puromycin-treated, purified from HeLa cells (human (endogenous in HeLa)) (UniProt P62750); assay: cryo-EM structure; in vitro reconstituted complex (dataset 2; merged with dataset 1 for the final map): 100 nM purified HeLa 80S ribosomes with an eightfold excess of recombinant Ebp1, SEC buffer (20 mM HEPES KOH pH 7.5, 5 mM Mg(OAc)2, 175 mM KOAc, 1 mM TCEP); occupancy estimated from computational particle sorting

**Q.** Which fraction of ribosomes decorated with Ebp1 [1] does the source give for “Endogenous Ebp1 on 80S ribosomes purified from HeLa cells (from UniProt Q9UQ80 1-394) (natural protein)” here?
**A.** 25%

**Q.** Which fraction of ribosomes decorated with Ebp1 [2] does the source give for “ErbB3 receptor-binding protein (Ebp1), full-length, p48 isoform, recombinant (from UniProt Q9UQ80 1-394) (natural protein)” here?
**A.** 75%
